Data from publication doi:10.1101/2023.03.19.532587 (bioRxiv, 2023).

Target: the molecule itself
Experiment: SEC-MALS

B1: nCPEB4-NTD (N-terminal domain of neuronal CPEB4, with microexon 4) (domain or fragment, human)
chain: MGDYGFGVLVQSNTGNKSAFPVRFHPHLQPPHHHQNATPSPAAFINNNTAANGSSAGSAWLFPAPATHNIQDEILGSEKAKSQQQEQQDPLEKQQLSPSPGQEAGILPETEKAKSEENQGDNSSENGNGKEKIRIESPVLTGFDYQEATGLGTSTQPLTSSASSLTGFSNWSAAIAPSSSTIINEDASFFHQGGVPAASANNGALLFQNFPHHVSPGFGGSFSPQIGPLSQHHPHHPHFQHHHSQHQQQRRSPASPHPPPFTHRNAAFNQLPHLANNLNKPPSPWSSYQSPSPTPSSSWSPGGGGYGGWGGSQGRDHRRGLNGGITPLNSISPLKKNFASNHIQLQKYARPSSAFAPKSWMEDSLNRADNIFPFPDRPRTFDMHSLESSLIDIMRAENDTIKARTYGRRRGQSSLFPMEDGFLDDGRGDQPLHSGLGSPHCFSHQNGE
  stoichiometry N: ~350 molecules
